To fix the notation:
T1: EsCas13d, nuclease-dead (Eubacterium siraeum, UniProt B0MS50, R295A;H300A;R849A;H854A)
T1 sequence: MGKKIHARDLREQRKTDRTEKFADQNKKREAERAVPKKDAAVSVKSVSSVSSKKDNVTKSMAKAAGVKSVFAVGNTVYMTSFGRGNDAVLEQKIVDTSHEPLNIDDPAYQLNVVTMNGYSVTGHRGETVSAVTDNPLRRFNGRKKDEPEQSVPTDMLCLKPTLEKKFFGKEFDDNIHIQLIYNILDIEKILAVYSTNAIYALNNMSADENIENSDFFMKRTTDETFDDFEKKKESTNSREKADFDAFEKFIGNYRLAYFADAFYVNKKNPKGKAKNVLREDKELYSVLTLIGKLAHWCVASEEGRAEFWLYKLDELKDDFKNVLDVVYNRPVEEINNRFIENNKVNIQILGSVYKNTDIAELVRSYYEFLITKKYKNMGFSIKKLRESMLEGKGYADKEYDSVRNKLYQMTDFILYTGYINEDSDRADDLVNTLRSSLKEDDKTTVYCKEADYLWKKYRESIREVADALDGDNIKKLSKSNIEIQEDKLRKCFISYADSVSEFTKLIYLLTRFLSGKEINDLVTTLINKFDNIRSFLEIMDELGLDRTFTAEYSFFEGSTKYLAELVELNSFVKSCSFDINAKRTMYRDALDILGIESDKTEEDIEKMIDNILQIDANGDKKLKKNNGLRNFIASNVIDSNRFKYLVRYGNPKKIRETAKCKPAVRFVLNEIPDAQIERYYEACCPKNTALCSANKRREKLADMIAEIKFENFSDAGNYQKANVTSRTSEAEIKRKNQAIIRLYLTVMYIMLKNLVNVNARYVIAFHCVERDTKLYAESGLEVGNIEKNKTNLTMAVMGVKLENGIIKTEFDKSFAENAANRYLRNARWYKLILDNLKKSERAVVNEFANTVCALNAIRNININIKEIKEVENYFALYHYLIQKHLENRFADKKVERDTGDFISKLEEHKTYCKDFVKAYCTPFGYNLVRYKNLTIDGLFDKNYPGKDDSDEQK

B1: target 1 insG 3' of 7,insC 3' of 3 (mixed)
RNA 1: CACCCGUGCAAAAAUGCAGGGGUCUAAAACUGAGCGGAUAACCUCUCUAUGG
RNA 2: GGGAAUGGAUCCACAUCUACGAAUUCGUACCAUAGAGAGGUUAUCGCGCUCCACCGAGAUCGGAAGAGCACACGU
B2: target 1 insA 3' of 2,insG 3' of 1 (mixed)
RNA 1: B1 RNA 1
RNA 2: B1 RNA 2 with G46C, C47G, G48C, C49U, U50C, C51A, C52A, A53G
B3: target 1 insC 3' of 22,insC 3' of 13 (mixed)
RNA 1: B1 RNA 1
RNA 2: GGGAAUGGAUCCACAUCUACGAAUUCGUACCCAUAGAGAGCGUUAUCCGCUCACCGAGAUCGGAAGAGCACACGU
B4: target 1 insU 3' of 13,insG 3' of 3 (mixed)
RNA 1: B1 RNA 1
RNA 2: B1 RNA 2 with G40U, U41G, A43U, U44A, C45U, G46C, C51G
B5: target 1 C7G,C22G (mixed)
RNA 1: B1 RNA 1
RNA 2: GGGAAUGGAUCCACAUCUACGAAUUCGUAGCAUAGAGAGGUUAUGCGCUCACCGAGAUCGGAAGAGCACACGU
B6: target 1 U3G,G12C (mixed)
RNA 1: B1 RNA 1
RNA 2: B5 RNA 2 with G30C, G40C, G45C, U49G
B7: target 1 insG 3' of 14,insG 3' of 7 (mixed)
RNA 1: B1 RNA 1
RNA 2: GGGAAUGGAUCCACAUCUACGAAUUCGUACCAUAGAGAGGGUUAUCGCGCUCACCGAGAUCGGAAGAGCACACGU
B8: target 1 C7G,A18C (mixed)
RNA 1: B1 RNA 1
RNA 2: B5 RNA 2 with G30C, A34C
B9: target 1 A1U,U19C (mixed)
RNA 1: B1 RNA 1
RNA 2: B5 RNA 2 with G30C, U33C, G45C, A51U
B10: target 1 insA 3' of 2,insC 3' of 1 (mixed)
RNA 1: B1 RNA 1
RNA 2: B7 RNA 2 with G41U, U43A, A44U, U45C, G49U, U51A, C52A, A53C
B11: target 1 U3A,G15C (mixed)
RNA 1: B1 RNA 1
RNA 2: B5 RNA 2 with G30C, G37C, G45C, U49A
B12: target 1 insG 3' of 10,insG 3' of 9 (mixed)
RNA 1: B1 RNA 1
RNA 2: B7 RNA 2 with G41U, U43G, U45G, C46U, G47C
B13: target 1 insA 3' of 2,insA 3' of 2 (mixed)
RNA 1: B1 RNA 1
RNA 2: B7 RNA 2 with G41U, U43A, A44U, U45C, G49U, U51A, C52A
B14: target 1 insA 3' of 8,insU 3' of 6 (mixed)
RNA 1: B1 RNA 1
RNA 2: B7 RNA 2 with G41U, U43A, A44U, U45A, G47C, C48U
B15: target 1 insA 3' of 12,insG 3' of 6 (mixed)
RNA 1: B1 RNA 1
RNA 2: B7 RNA 2 with G41A, G47C, C48G

Positions count from the first letter of the chain named. Numbers in names are those of the source.

For this series, the target named is T1, EsCas13d, nuclease-dead. The experiment in a line: crRNA (strand 1, pre-loaded); Mg2+; 40 mM Tris-HCl pH 7.5, 150 mM NaCl, 6 mM MgCl2, 1 mM DTT, 0.1% Tween-20, 0.2 mg/ml BSA; 25 C; 10 min per concentration, then washed. The settings on record: tags: His6-TwinStrep-SUMO cleaved; N-terminal SNAP kept (SNAP-Surface 488); label: 3' end held by stalled T7 RNA polymerase.
For B1, the Kd (as a rule, a measure of binding affinity in units of concentration) was 6.68 ± 0.19 nM.

Regarding B2, binding was characterised by a dissociation constant (Kd) of 8.6 ± 0.6 nM.

As for B3, the Kd worked out at 43 ± 15 nM.

In turn, B4 returned a Kd of 14.4 ± 1.9 nM.

B5 gave a Kd of 38 ± 6 nM.

Molecule B6 came in with a Kd of 8.1 ± 0.9 nM.

Molecule B7 registered a Kd of 6.8 ± 0.28 nM.

Regarding B8, the Kd turned out to be 81 ± 11 nM.

Molecule B9 showed a Kd of 22.2 ± 1.6 nM.

The molecule B10 came in with a Kd of 8.5 ± 0.6 nM.

In the case of B11, binding was put at a Kd of 32.9 ± 2.5 nM.

Take B12: binding was characterised by a dissociation constant (Kd) of 8.8 ± 0.5 nM.

The molecule B13 showed a Kd of 9.6 ± 0.4 nM.

For B14, binding was put at a Kd of 23.5 ± 1.4 nM.

B15 registered a Kd of 28 ± 4 nM.

For the origin of these results see paper PMC10786891, “Massively parallel profiling of RNA-targeting CRISPR-Cas13d”.
